Where a chain is given by its changes, count along the chain named. In names and notes the source's numbering stands.
B1: pUC trp AH Met1: PAF-AH from entire coding sequence beginning at the initiating methionine, E. coli, trp promoter (protein, UniProt Q13093 1-441, looked up)
chain: MVPPKLHVLFCLCGCLAVVYPFDWQYINPVAHMKSSAWVNKIQVLMAAASFGQTKIPRGNGPYSVGCTDLMFDHTNKGTFLRLYYPSQDNDRLDTLWIPNKEYFWGLSKFLGTHWLMGNILRLLFGSMTTPANWNSPLRPGEKYPLVVFSHGLGAFRTLYSAIGIDLASHGFIVAAVEHRDRSASATYYFKDQSAAEIGDKSWLYLRTLKQEEETHIRNEQVRQRAKECSQALSLILDIDHGKPVKNALDLKFDMEQLKDSIDREKIAVIGHSFGGATVIQTLSEDQRFRCGIALDAWMFPLGDEVYSRIPQPLFFINSEYFQYPANIIKMKKCYSPDKERKMITIRGSVHQNFADFTFATGKIIGHMLKLKGDIDSNVAIDLSNKASLAFLQKHLGLHKDFDQWDCLIEGDDENLIPGTNINTTNQHIMLQNSSGIEKYN
modifications: full-length
B2: V279F: PAF-AH with phenylalanine for valine at position 279, mutation of PAF-AH deficient individuals, expressed in E. coli (protein)
chain: B1 chain with V279F
B3: D304A: PAF-AH amino acid substitution product expressed in E. coli (protein)
chain: B1 chain with D304A
B4: D338A: PAF-AH amino acid substitution product expressed in E. coli (protein)
chain: B1 chain with D338A
B5: H351A: PAF-AH amino acid substitution product expressed in E. coli (protein)
chain: B1 chain with H351A
B6: H395A, H399A: PAF-AH double amino acid substitution product expressed in E. coli (protein)
chain: B1 chain with H395A, H399A
B7: C67S: PAF-AH cysteine to serine mutant expressed in E. coli (protein)
chain: B1 chain with C67S
B8: C229S: PAF-AH cysteine to serine mutant expressed in E. coli (protein)
chain: B1 chain with C229S
B9: C291S: PAF-AH cysteine to serine mutant expressed in E. coli (protein)
chain: B1 chain with C291S
B10: C334S: PAF-AH cysteine to serine mutant expressed in E. coli (protein)
chain: B1 chain with C334S
B11: C407S: PAF-AH cysteine to serine mutant expressed in E. coli (protein)
chain: B1 chain with C407S
B12: Wild type: Wild type human PAF-AH expressed in E. coli, reference of Table 8 (protein, UniProt Q13093 22-441, looked up)
Platelet-activating factor …: FDWQYINPVAHMKSSAWVNKIQVLMAAASFGQTKIPRGNGPYSVGCTDLMFDHTNKGTFLRLYYPSQDNDRLDTLWIPNKEYFWGLSKFLGTHWLMGNILRLLFGSMTTPANWNSPLRPGEKYPLVVFSHGLGAFRTLYSAIGIDLASHGFIVAAVEHRDRSASATYYFKDQSAAEIGDKSWLYLRTLKQEEETHIRNEQVRQRAKECSQALSLILDIDHGKPVKNALDLKFDMEQLKDSIDREKIAVIGHSFGGATVIQTLSEDQRFRCGIALDAWMFPLGDEVYSRIPQPLFFINSEYFQYPANIIKMKKCYSPDKERKMITIRGSVHQNFADFTFATGKIIGHMLKLKGDIDSNVAIDLSNKASLAFLQKHLGLHKDFDQWDCLIEGDDENLIPGTNINTTNQHIMLQNSSGIEKYN
B13: S108A: PAF-AH amino acid substitution product expressed in E. coli (protein)
chain: B1 chain with S108A
B14: S273A: PAF-AH amino acid substitution product expressed in E. coli (protein)
chain: B1 chain with S273A
B15: D286A: PAF-AH amino acid substitution product expressed in E. coli (protein)
chain: B1 chain with D286A
B16: D286N: PAF-AH amino acid substitution product expressed in E. coli (protein)
chain: B1 chain with D286N
B17: D296A: PAF-AH amino acid substitution product expressed in E. coli (protein)
chain: B1 chain with D296A

Test: PAF-AH activity of E. coli constructs with extended amino termini (lysate, media)
Assay type: biochemical
Details: E. coli lysate, trp promoter
Experimental: PAF-AH activity in transfectant supernatants was determined by the method of Stafforini et al. (1990), supra, with the following modifications. Briefly, PAF-AH activity was determined by measuring the hydrolysis of ^3H-acetate from [acetyl-^3H) PAF (New England Nuclear, Boston, Mass.). The aqueous free ^3H-acetate was separated from labeled substrate by reversed-phase column chromatography over octadecylsilica gel cartridges (Baker Research Products, Phillipsburg, Pa.). Assays were carried out using 10 μl transfectant supernatant in 0.1M Hepes buffer, pH 7.2, in a reaction volume of 50 μl. A total of 50 pmoles of substrate were used per reaction with a ratio of 1:5 labeled: cold PAF. Reactions were incubated for 30 minutes at 37° C. and stopped by the addition of 40 μl of 10M acetic acid. The solution was then washed through the octadecylsilica gel cartridges which were then rinsed with 0.1M sodium acetate. The aqueous eluate from each sample was collected and counted in a liquid scintillation counter for one minute. Enzyme activity was expressed in counts per minute.
and encompassed the termination codon of sAH 406-3 and contained an EcoRV cloning site. PCR reactions were performed essentially as described in Example 3. The resulting PCR product was digested with XbaI and EcoRV and subcloned into a pBR322 vector containing the Trp promoter [deBoer et al., PNAS. 80:21-25 (1983)] immediately upstream of the cloning site. E. coli strain XL-1 Blue was transformed with the expression construct and cultured in L broth containing 100 μg/ml of carbenicillin. Transformants from overnight cultures were pelleted and resuspended in lysis buffer containing 50 mM Tris-HCl pH 7.5, 50 mM NaCl, 10 mM CHAPS, 1 mM EDTA, 100 μg/ml lysozyme, and 0.05 trypsin-inhibiting units (TIU)/ml Aprotinin. Following a 1 hour incubation on ice and sonication for 2 minutes, the lysates were assayed for PAF-AH activity by the method described in Example 4. E. coli transformed with the expression construct (designated trp AH) generated a product with PAF-AH activity.
Several E. coli expression constructs were also evaluated which produce PAF-AH with extended amino termini. The N-terminus of natural plasma PAF-AH was identified as Ile42 by amino acid sequencing (Example 2). […] Acids Res., 14:4683-4690 (1986)]. Presumably a more classical signal sequence (M1-A17) is recognized by the cellular secretion system, followed by endoproteolytic cleavage. The entire coding sequence for PAF-AH beginning at the initiating methionine (nucleotides 162 to 1487 of SEQ ID NO: 7) was engineered for expression in E. coli using the trp promoter. […] Another expression construct, beginning at Val18 (nucleotides 213 to-1487 of SEQ ID NO: 7), produced active PAF-AH at about one third the level of the original construct.

**Q.** With B1 as the molecule, how does the “PAF-AH activity, Lysate” value read?
**A.** 3.1 U/ml/OD600

Same assay, conditions: E. coli media, trp promoter

**Q.** Which “PAF-AH activity, Media” value does the source give for B1 here?
**A.** 0.003 U/ml/OD600

Test: PAF-AH activity of amino acid substitution products expressed in E. coli
Assay type: biochemical
Details: control construct lacking the mutation fully active
Excerpt: By site-directed mutagenesis and PCR, individual codons of the human PAF-AH coding sequence were modified to encode alanine residues and were expressed in E. coli. […] The distances between active site residues is similar for PAF-AH (Ser to Asp, 23 amino acids; Ser to His, 78 amino acids) and other lipases. […] Cysteines are often critical for the functional integrity of proteins because of their capacity to form disulfide bonds. The plasma PAF-AH enzyme contains five cysteines. To determine whether any of the five is critical for enzyme actvity, each cysteine was mutated individually to a serine and the resulting mutants were expressed in E. coli. As shown below in Table 8, a significant but not total loss of PAF-AH activity resulted from the conversion of either Cys229, r Cys291 to serine. Therefore, these cysteines appear to be necessary for full PAF-AH activity. Other point mutations had little or no effect on PAF-AH catalytic activity. In Table 8, “++++” represent wild type PAF-AH activity of about 40-60 U/ml/OD600, “+++” represents about 20-40 U/ml/OD600 activity, “++” represents about 10-20 U/ml/OD600 activity, “+” represents 1-10 U/ml/OD600 activity, and “−” indicates <1 U/ml/OD600 activity.
To test whether this mutation crippled the enzyme, an E. coli expression construct containing the mutation was generated by methods similar to that described in Example 10. […] This amino acid substitution presumably results in a structural modification which causes the observed deficiency of activity and lack of immunoreactivity with the PAF-AH antibodies of the invention.

**Q.** For B2, which “PAF-AH activity of E. coli expression construct containing the mutation” value is on record?
**A.** no PAF-AH activity

Same assay, conditions: point mutants expressed in E. coli

**Q.** With B3 as the molecule, how does the PAF-AH activity read?
**A.** ++++ (“++++” represent wild type PAF-AH activity of about 40-60 U/ml/OD600)

**Q.** With B4 as the molecule, how does the PAF-AH activity read?
**A.** ++++ (“++++” represent wild type PAF-AH activity of about 40-60 U/ml/OD600)

**Q.** With B5 as the molecule, how does the PAF-AH activity read?
**A.** − (“−” indicates <1 U/ml/OD600 activity)

**Q.** Which PAF-AH activity does the source give for B6 here?
**A.** ++++ (“++++” represent wild type PAF-AH activity of about 40-60 U/ml/OD600)

**Q.** For B7, which PAF-AH activity is on record?
**A.** +++ (“+++” represents about 20-40 U/ml/OD600 activity)

**Q.** For B8, which PAF-AH activity is on record?
**A.** + (“+” represents 1-10 U/ml/OD600 activity)

**Q.** For B9, which PAF-AH activity is on record?
**A.** + (“+” represents 1-10 U/ml/OD600 activity)

**Q.** With B10 as the molecule, how does the PAF-AH activity read?
**A.** ++++ (“++++” represent wild type PAF-AH activity of about 40-60 U/ml/OD600)

**Q.** With B11 as the molecule, how does the PAF-AH activity read?
**A.** +++ (“+++” represents about 20-40 U/ml/OD600 activity)

**Q.** With B12 as the molecule, how does the PAF-AH activity read?
**A.** ++++ (“++++” represent wild type PAF-AH activity of about 40-60 U/ml/OD600)

**Q.** With B13 as the molecule, how does the PAF-AH activity read?
**A.** ++++ (“++++” represent wild type PAF-AH activity of about 40-60 U/ml/OD600)

**Q.** With B14 as the molecule, how does the PAF-AH activity read?
**A.** − (“−” indicates <1 U/ml/OD600 activity)

**Q.** With B15 as the molecule, how does the PAF-AH activity read?
**A.** − (“−” indicates <1 U/ml/OD600 activity)

**Q.** For B16, which PAF-AH activity is on record?
**A.** ++ (“++” represents about 10-20 U/ml/OD600 activity)

**Q.** With B17 as the molecule, how does the PAF-AH activity read?
**A.** − (“−” indicates <1 U/ml/OD600 activity)

Reference: US20050100540A1, “Platelet-activating factor acetylhydrolase” (priority 1993, published 2005)
